Source: the supplement of paper PMC10126150
± gives the standard deviation of the averaged measurements.

Test system: ATP
Test: switch fluorescence ratio, 500 uM ATP over buffer (Cy3 cluster intensity, sum of 5 cycles each) (fold (ratio)); higher = stronger signal-on switching upon ATP binding; sequences stand for … in TCGTCGGCAGCGTCAGATGTGTATAAGAGACAGTTTTTTTTTTTTTTTTTTTTTTTTT…TC
Conditions: aptamer strand: ATP DNA aptamer (quencher-CACCTGGGGGAGTATTGCGGAGGAAGG + anchor), 100 nM annealed; ATP concentration: 500 uM
Summary of the method: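 After annealing to 100 nM quencher-labelled ATP aptamer, Cy3-labelled switching-strand clusters on a modified Illumina MiSeq flow-cell were imaged in selection buffer. A second image followed after 15 min with 500 uM ATP at 22 °C, and five such buffer/ATP cycles were done, each separated by NaOH stripping and re-annealing. The fluorescence ratio, averaged per switch-domain sequence, is summed target-cycle over summed buffer-cycle Cy3 intensity per cluster, with clusters outside 100-1000 RFU excluded.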
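Further: ATP exposure 15 min at 22 °C before imaging.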

| Sequence | switch fluorescence ratio |
| --- | --- |
| TTAGCATATT | 1.01 ± 0.021 |
| TTTTCCTGCT | 1.07 ± 0.082 |
| GTTCTTGGG | 0.9835 ± 0.0023 |
| GATGAAAAAG | 1.033 ± 0.0093 |
| ACGTTGCCAG | 0.963 ± 0.019 |
| GTGGGTAGAG | 1 ± 0.057 |
| GAAAATTAGT | 1.016 ± 0.0023 |
| GGAATCAGGA | 0.991 ± 0.011 |
| TAAGAAAGTT | 1.41 ± 0.58 |
| TGTTTTAGGT | 1.02 ± 0.029 |
| CGGGGCCGTT | 1 ± 0.019 |
| AAGAGGGGAT | 0.985 ± 0.031 |
| ATGTCCTGTG | 1.01 ± 0.028 |
| TAAGGATATG | 1.01 ± 0.0069 |
| CGGTCGCTTG | 1.02 ± 0.032 |
| CCGTCAAGAG | 4.35 ± 0.16 |
| ACGCGACATT | 1.12 ± 0.039 |
| CCTTAAGGCG | 1.023 ± 0.0026 |
| CGTTTCTTTG | 0.966 ± 0.019 |
| CACGGCCGAA | 0.973 ± 0.013 |
| AGAGTCAGTG | 0.982 ± 0.022 |
| GGGTGTTAGA | 1 ± 0.014 |
| AAGGGAAGGG | 0.998 ± 0.025 |
| AGGTCCGCTT | 1.32 ± 0.039 |
| GGTATTGCGG | 1.05 ± 0.023 |

| Sequence | switch fluorescence ratio |
| --- | --- |
| TTAAATCTCG | 0.989 ± 0.046 |
| GGGTTAGGAG | 0.99 ± 0.029 |
| CGTGTATGGG | 1 ± 0.037 |
| CCAAATTGTG | 1.03 ± 0.03 |
| TTTAATTTT | 1.04 ± 0.078 |
| TACGGTCGAG | 1.1 ± 0.082 |
| GAGTAAAGTC | 0.934 ± 0.029 |
| GAGTAAAATT | 1.13 ± 0.18 |
| AAGGGCAAAT | 0.978 ± 0.015 |
| CGCTACGTGG | 0.99 ± 0.028 |
| CCTGCAGGGG | 1.094 ± 0.0051 |
| CGCATGATAG | 1.24 ± 0.036 |
| GATGGGCTTT | 0.983 ± 0.024 |
| GACGTTTTTG | 0.996 ± 0.011 |
| CCAATTTGAA | 0.9913 ± 0.0081 |
| TTAAACGGGA | 1.03 ± 0.024 |
| TGCGTATGAA | 0.9796 ± 0.0097 |
| TTTGAAGGAT | 1.29 ± 0.35 |
| ATCTAACCGA | 1.06 ± 0.026 |
| AGTATGGTGG | 0.998 ± 0.013 |
| TAGGTCAGGG | 0.965 ± 0.027 |
| GTGTGAGTGC | 1.06 ± 0.024 |
| TTGATGGTGG | 0.987 ± 0.056 |
| TTTTTTTAGA | 0.995 ± 0.022 |
| TGCAAGGTCG | 1.03 ± 0.031 |

| Sequence | switch fluorescence ratio |
| --- | --- |
| TCGGTGGGAG | 0.981 ± 0.048 |
| ATACTTATAT | 1.038 ± 0.0097 |
| ACTGAGTTTG | 1 ± 0.016 |
| GCGGCTTGTG | 0.9988 ± 0.0089 |
| GCGTCAACTG | 1.04 ± 0.023 |
| ATAATGCAGC | 0.988 ± 0.019 |
| AGCATCATTT | 0.971 ± 0.024 |
| GTTATATGAC | 0.999 ± 0.012 |
| AGTTTATTC | 1.01 ± 0.061 |
| ATACTGAATT | 1.005 ± 0.0065 |
| GCGAGGGGGG | 1.02 ± 0.034 |
| TTGCTTTAGA | 0.974 ± 0.012 |
| CTTCTAGAT | 0.9895 ± 0.0013 |
| TTGTTGA | 0.984 ± 0.042 |
| GAGTCGTGTG | 1.04 ± 0.024 |
| AATGGTGGGT | 1.01 ± 0.036 |
| TCGGCGGGAG | 1.01 ± 0.042 |
| TGGTTATGTA | 1 ± 0.014 |
| CCTTGCCGGG | 1.05 ± 0.019 |
| CGTGTTGTAG | 1.02 ± 0.017 |
| CGTCAATTAT | 1.14 ± 0.054 |
| CAAAAGGGAG | 1.036 ± 0.01 |
| CGGGACAGCG | 1.01 ± 0.0058 |
| CGTGAATTTT | 1 ± 0.037 |
| ATACCGAGTG | 0.991 ± 0.029 |

| Sequence | switch fluorescence ratio |
| --- | --- |
| GTTAATTTTT | 1.01 ± 0.043 |
| AGCATACAAA | 0.98 ± 0.012 |
| TTTGGGGGTA | 1.06 ± 0.068 |
| GACGTAGAGC | 1.08 ± 0.026 |
| ATTGAAACGA | 1.08 ± 0.039 |
| GGGATTAATG | 1.01 ± 0.015 |
| ATGGTAATTT | 0.977 ± 0.017 |
| AGTGTGGGCG | 1.04 ± 0.02 |
| GTTAGTACTA | 1 ± 0.038 |
| GATTAAGGGT | 1.04 ± 0.03 |
| GTGTAATTAG | 0.982 ± 0.035 |
| ATGTAGCATA | 1.57 ± 0.082 |
| TCATACGGTA | 1.179 ± 0.005 |
| TTATAGTATG | 0.99 ± 0.043 |
| TTTAAACTTT | 1.013 ± 0.0075 |
| CTGGAGGGGG | 1.01 ± 0.032 |
| TTTTGTCAAA | 1.02 ± 0.035 |
| TCTTGTTGGG | 1.01 ± 0.023 |
| GATGTTTGGG | 0.987 ± 0.019 |
| GATAGTAGTT | 0.9851 ± 0.0096 |
| ATCCGATACG | 1.18 ± 0.023 |
| ACGAGGGTGG | 1.065 ± 0.0084 |
| GGTCGGGTTG | 0.979 ± 0.011 |
| AAATTATGGA | 0.969 ± 0.075 |
| CTAAGAATAG | 1.02 ± 0.021 |
